Positions count from the first letter of the chain named. Names and notes keep the numbering of the source.
T1: human MCAM domain 1 (amino acids 19-129) hFc (human, UniProt P43121 19-129)
T1 construct: One of the various MCAMhFc domains captured on anti-human IgG Fc biosensors; also called MCAMhFc domain; not shown: human IgG Fc (hFc)
T1 sequence: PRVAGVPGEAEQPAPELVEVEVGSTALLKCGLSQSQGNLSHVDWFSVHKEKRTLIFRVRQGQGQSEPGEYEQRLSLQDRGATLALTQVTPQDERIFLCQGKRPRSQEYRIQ

T2: human MCAM domain 2 (amino acids 139-242) hFc (human, UniProt P43121 139-242)
T2 construct: One of the various MCAMhFc domains captured on anti-human IgG Fc biosensors; also called MCAMhFc domain; not shown: human IgG Fc (hFc)
T2 sequence: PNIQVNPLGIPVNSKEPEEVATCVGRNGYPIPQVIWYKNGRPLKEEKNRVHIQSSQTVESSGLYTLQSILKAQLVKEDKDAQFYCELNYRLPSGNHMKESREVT

T3: combination of human MCAM domains 1 and 2 (amino acids 19-242) hFc (human, UniProt P43121 19-242)
T3 construct: One of the various MCAMhFc domains captured on anti-human IgG Fc biosensors; also called combination of domains 1 and 2; MCAMhFc domain; not shown: human IgG Fc (hFc)
T3 sequence: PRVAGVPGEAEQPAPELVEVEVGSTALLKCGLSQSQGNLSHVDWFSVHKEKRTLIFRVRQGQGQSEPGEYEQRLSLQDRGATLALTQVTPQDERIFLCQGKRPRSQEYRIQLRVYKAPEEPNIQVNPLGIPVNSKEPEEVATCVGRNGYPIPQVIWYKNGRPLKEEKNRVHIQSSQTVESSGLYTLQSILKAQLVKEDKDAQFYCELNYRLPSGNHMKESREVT

T4: human MCAM, full length, expressed on transfected cells (human, UniProt P43121 24-646)
T4 construct: also called CD146; MUC18
T4 chain: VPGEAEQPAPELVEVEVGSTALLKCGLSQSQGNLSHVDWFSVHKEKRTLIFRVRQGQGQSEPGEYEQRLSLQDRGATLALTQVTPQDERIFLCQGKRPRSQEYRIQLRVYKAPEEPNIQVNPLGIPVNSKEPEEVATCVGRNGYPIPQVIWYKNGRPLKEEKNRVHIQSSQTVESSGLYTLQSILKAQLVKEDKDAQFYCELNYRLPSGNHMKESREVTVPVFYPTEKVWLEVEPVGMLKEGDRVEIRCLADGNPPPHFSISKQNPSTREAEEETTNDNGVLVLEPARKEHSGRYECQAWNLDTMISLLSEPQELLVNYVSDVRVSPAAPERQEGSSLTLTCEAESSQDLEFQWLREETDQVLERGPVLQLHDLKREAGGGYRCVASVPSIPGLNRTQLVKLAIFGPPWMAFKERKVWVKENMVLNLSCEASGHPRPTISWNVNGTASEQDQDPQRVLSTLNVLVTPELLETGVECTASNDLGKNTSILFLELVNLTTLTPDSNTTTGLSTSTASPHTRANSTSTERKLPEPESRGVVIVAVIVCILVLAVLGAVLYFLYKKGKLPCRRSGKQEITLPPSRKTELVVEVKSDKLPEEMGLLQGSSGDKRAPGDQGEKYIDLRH

T5: human MCAM (antigen of the BLI kinetics in Example 7) (human, UniProt P43121 24-559, limits assumed)
T5 chain: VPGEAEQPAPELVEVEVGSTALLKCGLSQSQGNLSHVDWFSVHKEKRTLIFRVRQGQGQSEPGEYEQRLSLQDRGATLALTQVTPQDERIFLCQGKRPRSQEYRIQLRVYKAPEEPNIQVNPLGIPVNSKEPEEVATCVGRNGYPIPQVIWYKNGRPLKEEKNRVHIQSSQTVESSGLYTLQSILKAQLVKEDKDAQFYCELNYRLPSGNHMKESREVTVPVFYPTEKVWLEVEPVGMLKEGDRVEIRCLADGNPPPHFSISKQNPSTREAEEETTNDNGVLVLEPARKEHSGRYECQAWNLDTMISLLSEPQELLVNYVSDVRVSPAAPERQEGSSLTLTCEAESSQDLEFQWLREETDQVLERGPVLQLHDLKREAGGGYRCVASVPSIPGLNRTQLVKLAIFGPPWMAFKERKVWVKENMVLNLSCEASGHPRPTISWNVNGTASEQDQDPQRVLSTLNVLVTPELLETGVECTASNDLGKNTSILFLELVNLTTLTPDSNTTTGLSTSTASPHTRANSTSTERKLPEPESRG

B1: human MCAM I141A single mutant displayed on mammalian cells (receptor)
chain: T4 chain with I118A
B2: human MCAM D216A single mutant displayed on mammalian cells (receptor)
chain: T4 chain with D193A
B3: mouse anti-human MCAM monoclonal antibody clone 1174.1.3 (antibody, V domains shown)
VH: QIQLVQSGPELKKPGETVKISCKASGYTFTNYGMNWVKQAPGKGLKWMGWINTYTGEPTYADDFKGRFALSLETSASTAYLQINNLKNEDMATYFCARYRYNKYERAMDYWGQGTSVTVSS
VL: DIVLTQSPASLAVSLGQRATISCRASKSVSTSGYSYMYWYQQKPGQPPKLLIYLASNLESGVPARFSGSGSGTDFTLNIHPVEEEDAATYYCQHSRELPFTFGSGTKLEIK
notes: Mouse hybridoma monoclonal antibody
B4: rat anti-human MCAM monoclonal antibody clone 2120.4.19 (antibody, V domains shown)
VH: QVQLKESGPGLVQPSQTLSLTCTVSGFSLTSNGVSWVRQPPGKGLEWIAAISSGGTTYYNSAFKSRLSISRNTSKSQVLLKMNSLQTEDTAMYFCARRYGYGWYFDFWGPGTMVTVSS
VL: DIRMTQSPSLLSASVGDRVTLNCKASQNIYNSLAWYQQKLGEGPKVLIFNANSLQTGIPSRFSGSGSGTDFTLTISSLQPEDFATYFCQQFYSGYTFGAGTKLELK
notes: Rat hybridoma monoclonal antibody
B5: rat anti-human MCAM monoclonal antibody clone 2107.4.10 (antibody, V domains shown)
VH: QVQLKESGPGLVQSSQTLSLTCTVSGFSLTSNGVSWVRQPPGKGLEWIAAISSGGSTYYNSAFKSRLSISRNTSKSQVLLKMNSLQTEDTGMYFCARHRPFYFDYWGQGVMVTVSS
VL: DIQVTQSPSLLSASVGDRVTLNCKGSQNIYKSLAWFRLKRGEAPKLLIYDANSLQTGIPSRFSGSGSGTDFTLTITSLQPEDVATYFCQQYYSGYTFGAGTKLELK
notes: as for B4
B6: Chimeric 1749 (antibody, V domains shown)
VH: DVKLVESGGDLVKPGGSLKLSCAASGFTFSSYIMSWVRQTPEKRLEWVATISSGGSSTYYPDSVKGRFTISRDNAKNTLYLQMSSLKSEDTAMYYCTRDDDYDVKVFAYWGQGTLVTVSA
VL: DIVMSQSPSSLAVSAGEKVTMNCKSSRSLLNSRIRKNYLAWYQQKPGQSPKLLIYWASTRESGVPDRFTGSGSGTDFTLTISSVQAEDLAVYYCKQSYNLLTFGAGTKLELK
notes: also called ch1749
B7: Human 1749VH3VL3 (Hu1749VHv3 and Hu1749VLv3) (antibody, V domains shown)
VH: B6 VH with D1E, D10G, K13Q, K19R, A120S
VL: DIVMTQSPSSLAVSLGERVTINCKSSRSLLNSRIRKNYLAWYQQKPGQSPKLLIYWASTRESGVPDRFSGSGSGTDFTLTISSLQAEDVAVYYCKQSYNLLTFGQGTKVEIKR
notes: also called hu1749VH3VL3; hu1749H3L3
B8: mouse anti-human MCAM monoclonal antibody clone 1414.1.2 (antibody, V domains shown)
VH: EIQLQQTGPELVKPGASVKISCKASGYSFTDYIMLWVKQSHGKSLEWIGNINPYSGSSGYNLKFKGKATLTVDKSSSTAYMQLNSLTSEDSAVYYCARGKDFAMDYWGQGTSVTVSS
VL: B6 VL with N22S, R27Q, R33S, I34T, Y38F, L100R, L101Y, A105G, L111I
notes: as for B3
B9: mouse anti-human MCAM monoclonal antibody clone 1415.1.1 (antibody, V domains shown)
VH: QVQLQQPGAELVQPGAPVKLSCKASGYIFTSYWMNWVKQRPGRGLEWIGRIDPSDSKIHYNQKFKDKATLTVDRSSSTAYIQLGSLTSEDSAVYYCAKEGGLRRGDYAMDYWGQGTSVTVSS
VL: DIVMTQSPATLSVTPGDRVSLSCRASQSISDYLHWYQQKSHESPRLLIKYASQSISGIPSRFSGSGSGSDFTLSINSVEPEDVGVYYCQNGHNFPRTFGGGTKLEIK
notes: as for B3

Key:
laminin α-4 = laminin α-4 (UniProt Q16363 25-1823); test: FACS on mammalian cells displaying the mutant
Source text: Twenty point mutants based on the structure information and shotgun mutagenesis information were designed and generated.

[1] = target: T1, human MCAM domain 1 (amino acids …); test: ForteBio BLI, MCAMhFc domains on anti-human IgG Fc biosensors
Source text: (§1) The following protocol was used: ForteBio anti-human IgG Fc biosensors were used to immobilize various MCAMhFc domains including full length MCAMhFc protein on to biosensor surface. […] After loading these samples into a black 96 well plate, the Octet Red was programmed as follows: 60 seconds for baseline #1; 180 seconds for loading various domains; 60 seconds for baseline #2; 180 seconds for association of antibody to domain; and 240 seconds for dissociation of antibody from domain.
(§2) 1. MCAMhFc final concentration @ 5 ug/ml [0329] […] 3. ForteBio anti-human IgG Fc Capture (AHC) biosensors for kinetics experiments, cat #18-5060 [0331] 4. Block 96 well plate from Greiner Bio-one, cat #655209 [0332] 5. ForteBio Octet Red machine [0333] 6. Fresh tissue culture medium, DMEM with 20% FCS, was used as buffer for dilution The results from these analyses are as follows.

[2] = target: T2, human MCAM domain 2 (amino acids …); test: as above
Source text: as §1, §2

[3] = target: T3, combination of human MCAM domains 1 and …; test: as above
Source text: as §1, §2

[4] = target: T4, human MCAM, full length, expressed on …; test: flow cytometry, blocking of recombinant human laminin 411 (20 ug/ml) binding to CHO cells expressing human MCAM
Experimental: The 87 independent mouse fusion clones and 26 independent rat fusion clones described in Example 1 above as being capable of (i) binding to human MCAM, and (ii) blocking the interaction between human MCAM and the α-4 chain of laminin were further characterized as follows. First, IC50 quantitation for the ability of the monoclonal antibody to block the binding of human MCAM to the α-4 chain of laminin was determined as follows. CHO cells expressing human MCAM were incubated with an anti-human MCAM antibody (at various concentrations) for 30 minutes at 4 degrees Celsius. […] Unbound laminin was then washed away, and the laminin bound to the surface of the cells was detected with fluorescently labeled anti-laminin antibodies. After washing, the amount of laminin bound to the surface was detected by flow cytometry, and IC50s were calculated based on the mean fluorescent intensity.
Amino acid and nucleic acid sequences of the heavy and light chains of these antibodies, and their hypervariable regions, are provided in SEQ ID NOs:29-92. […] As such, each of these specific monoclonal antibodies was very capable of binding to human MCAM and inhibiting the interaction of cell-expressed human MCAM with its α-4 laminin binding ligand.

[5] = target: T5, human MCAM (antigen of the BLI kinetics …); test: BLI, ForteBio Octet QK, apparent KD
Source text: (§3) Apparent ka, apparent kd and apparent KD are binding kinetic parameters obtained using ForteBio assay formats.

[6] = target: T5, human MCAM (antigen of the BLI kinetics …); test: BLI, ForteBio Octet QK, apparent ka
Source text: as §3

[7] = target: T5, human MCAM (antigen of the BLI kinetics …); test: BLI, ForteBio Octet QK, apparent kd
Source text: as §3

laminin α-4, sequence (Q16363 25-1823): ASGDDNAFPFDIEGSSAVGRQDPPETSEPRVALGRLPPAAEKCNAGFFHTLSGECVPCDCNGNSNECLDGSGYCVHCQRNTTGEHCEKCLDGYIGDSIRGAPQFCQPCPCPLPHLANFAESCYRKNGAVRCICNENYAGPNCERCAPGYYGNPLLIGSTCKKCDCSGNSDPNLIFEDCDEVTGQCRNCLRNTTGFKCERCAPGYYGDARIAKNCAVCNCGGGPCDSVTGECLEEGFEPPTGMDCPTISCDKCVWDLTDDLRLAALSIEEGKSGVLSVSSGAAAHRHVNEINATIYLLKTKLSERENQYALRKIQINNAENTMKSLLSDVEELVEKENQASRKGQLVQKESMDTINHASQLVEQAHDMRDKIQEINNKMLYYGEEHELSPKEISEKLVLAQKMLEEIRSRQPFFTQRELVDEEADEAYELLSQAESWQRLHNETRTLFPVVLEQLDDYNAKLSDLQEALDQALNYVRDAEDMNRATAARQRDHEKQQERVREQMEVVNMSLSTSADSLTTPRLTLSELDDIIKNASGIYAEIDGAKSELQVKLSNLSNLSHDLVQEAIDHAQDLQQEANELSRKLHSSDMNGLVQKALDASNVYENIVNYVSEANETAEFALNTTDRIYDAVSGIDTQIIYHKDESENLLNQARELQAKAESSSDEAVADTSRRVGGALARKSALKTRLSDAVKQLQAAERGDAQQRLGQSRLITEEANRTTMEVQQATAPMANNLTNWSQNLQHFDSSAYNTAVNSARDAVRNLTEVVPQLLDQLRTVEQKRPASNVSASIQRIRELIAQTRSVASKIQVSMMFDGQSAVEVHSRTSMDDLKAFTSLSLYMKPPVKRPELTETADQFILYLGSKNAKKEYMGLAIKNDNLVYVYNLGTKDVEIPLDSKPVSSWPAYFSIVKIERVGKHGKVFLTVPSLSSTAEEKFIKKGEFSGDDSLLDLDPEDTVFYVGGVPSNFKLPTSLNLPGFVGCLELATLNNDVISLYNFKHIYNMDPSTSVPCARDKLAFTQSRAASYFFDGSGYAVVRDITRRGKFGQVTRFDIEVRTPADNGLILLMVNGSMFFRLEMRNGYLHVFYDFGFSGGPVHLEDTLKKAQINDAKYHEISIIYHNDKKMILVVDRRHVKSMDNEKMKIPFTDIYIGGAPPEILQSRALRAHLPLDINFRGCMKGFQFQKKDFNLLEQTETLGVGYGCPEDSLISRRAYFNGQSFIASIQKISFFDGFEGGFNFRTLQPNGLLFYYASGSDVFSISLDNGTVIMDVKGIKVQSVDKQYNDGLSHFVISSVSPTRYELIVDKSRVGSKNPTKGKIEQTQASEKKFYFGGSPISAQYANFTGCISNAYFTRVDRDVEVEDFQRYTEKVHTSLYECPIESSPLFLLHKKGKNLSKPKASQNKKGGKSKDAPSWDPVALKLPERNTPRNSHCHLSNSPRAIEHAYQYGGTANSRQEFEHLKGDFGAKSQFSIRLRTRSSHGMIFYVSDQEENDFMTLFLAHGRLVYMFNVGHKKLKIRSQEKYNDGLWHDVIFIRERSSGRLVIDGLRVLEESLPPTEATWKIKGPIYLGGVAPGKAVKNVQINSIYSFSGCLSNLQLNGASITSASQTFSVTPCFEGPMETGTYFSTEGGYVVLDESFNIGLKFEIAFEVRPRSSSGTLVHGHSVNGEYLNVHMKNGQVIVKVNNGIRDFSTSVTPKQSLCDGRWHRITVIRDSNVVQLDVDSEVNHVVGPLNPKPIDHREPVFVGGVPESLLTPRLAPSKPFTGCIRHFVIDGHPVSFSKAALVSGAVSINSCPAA

Row | Binder | binding result [1] | binding result [2] | binding result [3] | IC50 [4] [µg/mL] | other results
1 | B1 |  |  |  |  | binding result (laminin α-4): no binding
2 | B2 |  |  |  |  | binding result (laminin α-4): no binding
3 | B3 | no binding (tested: 5 ug/ml) | no binding (tested: 5 ug/ml) | no binding (tested: 5 ug/ml) | 0.469 | 
4 | B4 | no binding (tested: 5 ug/ml) |  |  | 0.888 | 
5 | B5 | no binding (tested: 5 ug/ml) |  |  | 0.29 | 
6 | B6 |  |  |  |  | Kd [5]: 0.226 nM; kon [6]: 1.94e+06 M⁻¹ s⁻¹; koff [7]: 0.000439 s⁻¹
7 | B7 |  |  |  |  | Kd [5]: 0.221 nM; kon [6]: 1.99e+06 M⁻¹ s⁻¹; koff [7]: 0.00044 s⁻¹
8 | B8 | no binding (tested: 5 ug/ml) | no binding (tested: 5 ug/ml) | no binding (tested: 5 ug/ml) | 0.431 | 
9 | B9 | no binding (tested: 5 ug/ml) | no binding (tested: 5 ug/ml) | no binding (tested: 5 ug/ml) | 0.307 | 
